Test results as given in article PMC2267159 (BMC Biology, 2008).

Target: the molecule itself
Assay: SDS-PAGE

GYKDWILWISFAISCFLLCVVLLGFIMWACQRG [TMD peptide of HA2 (strain X:31) of influenza virus, unlabeled]
binding result: binds
